Laboratory results from US20250213686A1 (published 2025).

B1: T1D4 TCR (TCR, V domains shown)
Valpha: KDQVFQPSTVASSEGAVVEIFCNHSVSNAYNFFWYLHFPGCAPRLLVKGSKPSQQGRYNMTYERFSSSLLILQVREADAAVYYCAVEDLNQAGTALIFGKGTTLSVSS
Vbeta: KAGVTQTPRYLIKTRGQQVTLSCSPISGHRSVSWYQQTPGQGLQFLFEYFSETQRNKGNFPGRFSGRQFSNSRSEMNVSTLELGDSALYLCASSLALGQGNQQFFGPGTRLTVL
B2: T1D2 TCR (TCR, V domains shown)
Valpha: DQQVKQNSPSLSVQEGRISILNCDYTNSMFDYFLWYKKYPAEGPTFLISISSIKDKNEDGRFTVFLNKSAKHLSLHIVPSQPGDSAVYFCAATRTSGTYKYIFGTGTRLKVLA
Vbeta: NAGVTQTPKFRILKIGQSMTLQCTQDMNHNYMYWYRQDPGMGLKLIYYSVGAGITDKGEVPNGYNVSRSTTEDFPLRLELAAPSQTSVYFCASSPWGAGGTDTQYFGPGTRLTVL

Tests used:
IGRP (islet-specific …) [1] = target: T1, IGRP (islet-specific glucose-6-phosphatase-related protein) peptide on HLA-DRA*01:01 / HLA-DRB1*04:01 (human); experiment: proliferation
[2] = target: T2, Preproinsulin (PPI) peptide on HLA-DRA*01:01 / HLA-DRB1*04:01 (human); experiment: proliferation
T2 peptide: SLQPLALEGSLQKRG

IGRP (islet-specific …) [3] = target: T1, IGRP (islet-specific …); experiment: upper end of the range; % CD137-expressing cells; LV-transduced CD4+ T cells 3:1 with peptide-pulsed HLA-DR4 K562 cells, 20 h; full-length, on cells
IGRP (islet-specific …) [4] = target: T1, IGRP (islet-specific …); experiment: upper end of the range; CD154 surface expression intensity; LV-transduced CD4+ T cells 3:1 with peptide-pulsed HLA-DR4 K562 cells, 20 h; full-length, on cells
IGRP (islet-specific …) [5] = target: T1, IGRP (islet-specific …); experiment: lower end of the range; CD154 surface expression intensity; LV-transduced CD4+ T cells 3:1 with peptide-pulsed HLA-DR4 K562 cells, 20 h; full-length, on cells
IGRP (islet-specific …) [6] = target: T1, IGRP (islet-specific …); experiment: lower end of the range; % CD137-expressing cells; LV-transduced CD4+ T cells 3:1 with peptide-pulsed HLA-DR4 K562 cells, 20 h; full-length, on cells
[7] = target: T3, TPA: UDP-N-acetylglucosamine--N-acetylmuramyl-(pentapeptide) pyrophosphoryl-undecaprenol N-acetylglucosamine … (human); experiment: activation reporter or marker
T3 peptide: AARFLHIPYYTHECD

[8] = target: T4, hypothetical protein ECU05_1220 [Encephalitozoon cuniculi GB-M1] (IGRP305_324_path19) peptide on … (human); experiment: activation reporter or marker
T4 peptide: QQKFLKNIDTHEEAE

[9] = target: T5, WD domain, G-beta repeat-containing protein [Toxoplasma gondii ARI] (IGRP305_324_path20) peptide on … (human); experiment: activation reporter or marker
T5 peptide: ESLFLQLSTHTEASA

[10] = target: T6, hypothetical protein GX51_07420 [Blastomyces parvus] (IGRP305_324_path16) peptide on HLA-DRA*01:01 / … (human); experiment: activation reporter or marker
T6 peptide: KYEFLPIPTYEEATS

[11] = target: T7, UDP-N-acetylglucosamine--N-acetylmuramyl-(pentapeptide) pyrophosphoryl-undecaprenol N-acetylglucosamine … (human); experiment: activation reporter or marker
T7 peptide: AASFLHIPYFTHECD

[12] = target: T8, hypothetical protein KMI_05g09430 [Encephalitozoon hellem] (IGRP305_324_path18) peptide on HLA-DRA*01:01 / … (human); experiment: activation reporter or marker
T8 peptide: LSEFLKIPNHEITLL

[13] = target: T9, exodeoxyribonuclease V subunit beta [Chlamydia caviae] (IGRP305_324_path12) peptide on HLA-DRA*01:01 / … (human); experiment: activation reporter or marker
T9 peptide: CSPFLQIPSYEPIEY

[14] = target: T10, hypothetical protein V495_01361 [Pseudogymnoascus sp. VKM F-4514 (FW-929)] (IGRP305_324_path15) peptide on … (human); experiment: activation reporter or marker
T10 peptide: SAMFLDIPTHPEEHS

[15] = target: T11, DUF4435 domain-containing protein [Bacillus toyonensis] (IGRP305_324_path5) peptide on HLA-DRA*01:01 / … (human); experiment: activation reporter or marker
T11 peptide: YDEVLQIPTHQENTQ

[16] = target: T12, undecaprenyldiphospho-muramoylpentapeptide beta-N-acetylglucosaminyltransferase [Treponema sp.] … (human); experiment: activation reporter or marker
T12 peptide: AAKFLHIPVFTHECD

[17] = target: T13, hypothetical protein T551_03071 [Pneumocystis jirovecii RU7] (IGRP305_324_path17) peptide on HLA-DRA*01:01 / … (human); experiment: activation reporter or marker
T13 peptide: FTDFLNIPSYEELND

Row | Binder | binding result (IGRP (islet-specific …) [1]) | binding result [2] | EC50 of peptide (IGRP (islet-specific …) [3]) [µg/mL] | EC50 of peptide (IGRP (islet-specific …) [4]) [µg/mL] | EC50 of peptide (IGRP (islet-specific …) [5]) [µg/mL] | EC50 of peptide (IGRP (islet-specific …) [6]) [µg/mL] | binding result [7] | binding result [8] | binding result [9] | binding result [10] | binding result [11] | binding result [12] | binding result [13] | binding result [14] | binding result [15] | binding result [16] | binding result [17]
1 | B1 | no recognition | no recognition | – | – | – | – | – | – | – | – | – | – | – | – | – | – | –
2 | B2 | – | – | ≤ 0.1 | ≤ 0.3 | ≥ 0.1 | ≥ 0.03 | no recognition | no recognition | no recognition | no recognition | no recognition | no recognition | no recognition | no recognition | no recognition | no recognition | no recognition
